B1: AB-009202 (antibody, V domains shown)
VH: QVQLVESGGGVVQPGRSLRLSCAASGFTFSSYGMHWVRQAPGKGLEWVAVIWYDGSNKYYADSVKGRFTISRDNSKNTLYLQMNSLRAEDTAVYYCARDGGPEYYFDYWGQGTLVTVSS
VL: SYELTQPPSVSVSPGQTARITCSGDALPKQYAYWYQQKPGQAPVLVIYKDSERPSGIPERFSGSSSGTTVTLTISGVQAEDEADYYCQSADSSGTYNVVFGGGTKLTVL
B2: AB-009108 (antibody, V domains shown)
VH: QVQLQESGPGLVKPSETLALTCTVSGDSIINNNFYWGWLRQPPGQGLEWIGSLFHTGSAYYNSSLKSRVRSSVDTARNQISLRLSSVTAADTAVYYCARVNIVSVPAPPGAIEGWFDPWGQGTRVTVSP
VL: SYELTQPPSVSVSLGQTARISCSGDALPTKYVHWYQQKAGQAPVVVIFRDTERPSEIPERFSGSSSGTTVTLTISGVQAEDEADYYCQSVDGSGFYVFGSGTKVTVL
B3: AB-009244 (antibody, V domains shown)
VH: EVQLVESGGGLVQPGGSLRLSCAASGFAFNTYGINWVRQAPGKGLEWVSFISSRSTTIHYADSVRGRFTISRDNAKNSLYLQMNNLRDEDTAVYYCARDLLIWFGETGAFDIWGQGTMVTVSS
VL: EVVMTQSPATLSVSSGERVTLSCRASQSVSNNLAWYQQKPGQAPRLLIYGASTRATGFPARFSGSGSGTEFTLTISSLQSEDFAVYYCQQYNIWPPGTFGQGTKLEIK
B4: AB-009174 (antibody, V domains shown)
VH: QVQLQQWGAGLLKPSETLSLTCAVYGESFSGYYWNWIRQPPGKGLEWIGEIDQSGSTNYNPSLKSRVTISVDTSKNQFSLKLTSVTAADTAVYYCARVSGRMQLWLRAGYMDVWDKGTTVTVSS
VL: QSALTQPASVSGSPGQSITISCTGTSSDVGRYNYVSWYQQHPGKAPKLMIYEVSNRPSGVSNRFSGSKSGNTASLTISGLQAEDEADYYCSSYTTSSTRVFGGGTKLTVL
B5: AB-009231 (antibody, V domains shown)
VH: EVQLVESGGGLVQPGGSLRLSCAASGFTFSSYWMSWVRQAPGKGLEWVANIKQDGSEKYYVDSVKGRFTISRDNAKNSLYLQMNSLRAEDTAVYYCARVSMRFLEWSFYYYYYMDVWGKGTTVTVSS
VL: SSELTQDPAVSVALGQTVRITCQGDSLRSYYASWYQQKPGQAPVLVIYGKNNRPSGIPDRFSGSSSGNTASLTITGAQAEDEADYYCNSRDSSGNHLGVVFGGGTKLTVL
B6: AB-009627 (antibody, V domains shown)
VH: QVQLQQWGAGLLKPSETLSLTCAVYGGSFSGYYWSWIRQPPGKGLEWIGEINHSGSTNYNPSLKSRVTISVDTSKNQFSLKLSSVTAADTAVFYCARGGYSSSWYGEKYWFDPWGQGTLVTVSS
VL: QSALTQPRSVSGSPGQSVTISCTGTSSDVGGYNYVSWYQQHPGKAPKLMIYDVSKRPSGVPDRFSGSKSGNTASLTISGLQAEDEADYYCCSYAGSPYVFGTGTKVTVL
B7: AB-009237 (antibody, V domains shown)
VH: QVQLLQSGAEVKKPGASVSVSCKASGFTFTSYYFHWVRQAPGQGLEWMGIVSPAGGSTNYAQKFQGRVTMTRDTSTSTVHMELRNVRYDDTAVFYCARSVYCSSPSCPHGMDVWGPGTMVTVSS
VL: DIQVTQSPSTLSASVGDRVTITCRASQSILTYLAWYQQKPGKAPNLLIYKASNLQSGVPSRFSGSGSGTEFTLTISSLQPDDFATYHCQQYKSYPFSFGQGTKLAIK

Molecular target: SARS-CoV-2 Spike (S) trimer (SARS-CoV-2), P0DTC2
Assay: ELISA, S trimer coated, 1:50 dilution
Conditions: remark: other sources report otherwise

Binder | Optical Density (OD; 450 nm)
B1 | 1.99 OD450
B2 | 0.28 OD450
B3 | 0.239 OD450
B4 | 0.154 OD450
B5 | 0.46 OD450
B6 | 0.823 OD450
B7 | 0.228 OD450

— patent US20240025971A1
